Source: patent publication US20230303685A1 (ELECTRA THERAPEUTICS, published 2023)

T1: Human SIRPγ CHO
T1 construct: also called human SIRPγ on CHO cells
T1 chain: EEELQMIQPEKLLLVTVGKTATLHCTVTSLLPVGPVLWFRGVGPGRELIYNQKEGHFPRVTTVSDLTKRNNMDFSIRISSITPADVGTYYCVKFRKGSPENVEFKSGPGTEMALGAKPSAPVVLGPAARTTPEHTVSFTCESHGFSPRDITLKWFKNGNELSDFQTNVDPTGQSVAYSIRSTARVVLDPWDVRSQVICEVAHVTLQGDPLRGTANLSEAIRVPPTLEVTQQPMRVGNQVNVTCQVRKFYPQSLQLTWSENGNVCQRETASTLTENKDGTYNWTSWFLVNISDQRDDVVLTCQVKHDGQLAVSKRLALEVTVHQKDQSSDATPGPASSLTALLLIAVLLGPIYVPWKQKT

T2: Human SIRPβ1
T2 construct: also called human SIRPβ1 extracellular domain, plate-coated
T2 chain: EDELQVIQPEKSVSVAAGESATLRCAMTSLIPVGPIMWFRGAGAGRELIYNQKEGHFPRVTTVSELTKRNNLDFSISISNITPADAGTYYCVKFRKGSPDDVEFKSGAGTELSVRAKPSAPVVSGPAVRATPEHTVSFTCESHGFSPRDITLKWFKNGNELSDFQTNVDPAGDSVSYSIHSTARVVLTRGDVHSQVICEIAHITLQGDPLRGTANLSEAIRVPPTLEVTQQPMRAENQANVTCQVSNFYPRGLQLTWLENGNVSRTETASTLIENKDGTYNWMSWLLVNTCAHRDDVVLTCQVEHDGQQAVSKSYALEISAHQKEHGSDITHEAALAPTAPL

T3: Human SIRPγ
T3 construct: also called human SIRPγ extracellular domain, plate-coated
T3 chain: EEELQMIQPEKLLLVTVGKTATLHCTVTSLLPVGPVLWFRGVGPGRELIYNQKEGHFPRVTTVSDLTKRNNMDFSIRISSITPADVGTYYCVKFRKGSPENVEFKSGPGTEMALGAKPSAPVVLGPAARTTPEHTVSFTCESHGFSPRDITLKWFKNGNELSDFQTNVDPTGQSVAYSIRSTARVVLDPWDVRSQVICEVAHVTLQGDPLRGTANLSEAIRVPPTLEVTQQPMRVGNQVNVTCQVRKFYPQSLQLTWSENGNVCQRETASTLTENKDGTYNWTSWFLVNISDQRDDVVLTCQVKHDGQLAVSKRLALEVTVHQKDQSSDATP

B1: Antibody 8 (antibody, V domains shown)
VH: QVQLQQWGAGLLKPSETLSLTCAVYGGSFSGYYWSWIRQPPGKGLEWIGEINHSGSTNFNPSLKSRVTISVDTSKNQFSLKLRSVTAADTAVYYCSRVDSGSYPYYDGLDVWGQGTTVTVSS
VL: SSELTQPPSVSVSPGQTASITCSGDKLGDKYVYWYQQKPGQSPVLVIYHDDRRPAGIPERFAGSASGNTATLTISGTQAMDEADYYCQTWDSSTVVFGGGTKLTVL
notes: Human variable region, rat IgG2b Fc; from hybridoma
B2: Antibody 15 (antibody, V domains shown)
VH: QIQLVQSGPELKKPGETVKISCKGSGYTFRNFGMNWVKQAPGMGLKWMVWIDTNTGEPTYAEEFKGRFAFSLETSASTAYLQINNLKNEDTATYFCARSRGNYFAMEYWGQGTSVTVSS
VL: DIKMTQSPSSMYASLGERVTVTCKASQDINRYLSWFQQKPGKSPKTLIYRANRLVDGVPSRFSGSGSGQDYSLTISSLEYEDMGFYYCLQYDEFPFTFGSGTKLEIK
notes: Mouse variable region, mouse IgG2a Fc; from hybridoma
B3: Antibody 11 (antibody, V domains shown)
VH: EVQLVESGGGLVQPGGSLRLSCAASGFTFSSYWMHWVRQAPGKGLVWVSRIHNDGSRTSYADSVKGRFTISRDNAKNTLYLQMSSLRAEDTAVYYCTRDPPPYDILTGYPFDYWGQGTLVTVSS
VL: DIQMTQSPSSVSASVGDRVTITCRASQDISSWLAWFQQKPGKAPKLLIYGASSLQSGVPSRFSGSGSGTDFTLTISSLQPEDFATYYCQEANSFPYTFGQGTKLEIK
notes: as for B1
B4: Antibody 3 (antibody, V domains shown)
VH: QVQLQESGPGLVKPSGTLSLTCAVSGGSISSSNWWSWVRQPPGKGLEWIGEIYHSGNTNYNPSLKSRVTISVDKSKNQFSLKLSSVTAADTAVYYCAREGIEGYYFYYGMDVWGQGTTVTVSS
VL: DIQLTQSPSFLSASVGDRVTITCRASQGISGYLDWYQQKPGKAPKLLIYAASTLQRGVPSRFSGSGSGTDFNLTISSLQPEDFATYYCQQFTSDLITFGQGTRLEIK
notes: as for B1
B5: Antibody 25 (antibody, V domains shown)
VH: EVQMLESGGGLVQPGGSLRLSCAASGFTFSSYAMSWVRQAPGKGLEWVSAISGSGSSTHYADSVKGRFTISRDNSKNTLYLQMNSLRAEDTAVYYCAAYSGSYYYYGMDVWGQGTTVTVSS
VL: EIVMTQSPATLSVSPGERATLSCRASQSVSRNLAWYQQKSGQAPRLLIYGASTRATGIPARFSGSGSGTEFTLTISSLQSEDFAGYYCQQYNNWPYTFGQGTKLEIK
notes: Variable regions of Antibody 13

Key:
[1] = biological target: T4, human SIRPα V1-His monomer (human, UniProt P78324 31-373, limits assumed); assay: BLI (Octet); antibody on anti-mouse IgG capture tip, SIRP-His monomer at 100, 33.3, 11.1 nM, 1:1 fit, mean KD
T4 construct: 'SIRP-His monomer protein' of the Octet assay; also called SIRP-His; not shown: His tag
Procedure: (§1) Select SIRP antibodies were tested for their affinities to human SIRPα, SIRPβ1, and SIRPγ using a biolayer interferometry (BLI) Octet system (Pall ForteBio). Each SIRP antibody with rat or mouse Fc was immobilized on a biosensor tip by an anti-mouse IgG capture (AMC). Antibodies with human Fc were digested with gingipain K enzyme to yield monomeric F(ab′), biotinylated, then coated onto streptavidin biosensors. […] The biosensors were then exposed to wash buffer to measure off-rate kinetics. The resulting kinetic data were analyzed and fitted using a 1:1 binding model with kₒₙ and kdis fitted separately at each SIRP-His protein concentration. KD affinities were calculated as kdis to kₒₙ ratio at each concentration of SIRP-His and averaged.

human SIRPβ1-His monomer = biological target: T5, human SIRPβ1-His monomer (human, UniProt O00241 30-371); assay: as above
T5 construct: 'SIRP-His monomer protein' of the Octet assay; also called SIRP-His; not shown: His tag
Procedure: as §1

human SIRPγ-His monomer = biological target: T6, human SIRPγ-His monomer (human); assay: as above
T6 construct: 'SIRP-His monomer protein' of the Octet assay; also called SIRP-His; not shown: His tag
Procedure: as §1

Human SIRPβ1/DAP12 CHO = biological target: T7, Human SIRPβ1/DAP12 CHO; assay: flow cytometry, stably transfected CHO cells, antibody titrated, labelled anti-rat or anti-mouse IgG, MFI
T7 construct: also called human SIRPβ1 on CHO cells co-transfected with DAP12; copies: 1 + 2
T7 sequence (DAP12, as listed by the source limits assumed): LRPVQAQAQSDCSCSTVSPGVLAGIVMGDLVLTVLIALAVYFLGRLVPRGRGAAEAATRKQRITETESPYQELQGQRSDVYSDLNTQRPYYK
Procedure: (§2) Selected antibodies were tested for binding to stably transfected human SIRPα, SIRPβ1 (co-transfected with DAP12), or SIRPγ Chinese hamster ovary (CHO) cells via flow cytometry. A titration of SIRP antibodies was added to the cells and detected using a fluorescently labelled secondary antibody. Graph depicts the median fluorescence intensity (MFI) at each concentration.

Human SIRPγ CHO [2] = biological target: T1, Human SIRPγ CHO; assay: as above
Procedure: as §2

Cynomolgus Monkey SIRPγ = biological target: T8, Cynomolgus Monkey SIRPγ (Macaca fascicularis); assay: ELISA, extracellular domain coated at 2 µg/mL, purified antibody titrated, anti-rat or anti-mouse IgG, chemiluminescence
T8 construct: extracellular domain; also called cyno SIRPγ extracellular domain, plate-coated
Procedure: (§3) Select SIRP antibodies were purified by Protein G from hybridoma supernatants and analyzed in a titration via ELISA. Briefly, 2 μg/mL of extracellular domain of each of the SIRPs was coated onto high protein-binding plates and blocked. Purified antibodies were added in a titration to the coated plates. The antibodies were detected by an anti-rat IgG or an anti-mouse IgG antibody and a chemiluminescent substrate.

Human SIRPβ1 = biological target: T2, Human SIRPβ1; assay: as above
Procedure: as §3

Human SIRPγ [3] = biological target: T3, Human SIRPγ; assay: as above
Procedure: as §3

[4] = biological target: T9, human SIRPα V1 extracellular domain, monomeric (human, UniProt P78324 31-373); assay: as above
T9 construct: also called hSIRPα V1
Procedure: as §3

[5] = biological target: T10, Human SIRPγ conjugated to an Fc region (human); assay: BLI blocking; 200 nM antibody pre-incubated with 20 nM SIRPγ-Fc, binding to immobilised CD47-His (competitor), % of response of SIRPγ-Fc alone
T10 construct: also called SIRPγ-Fc; SIRP-Fc; not shown: Fc region

[6] = biological target: T11, cynomolgus monkey SIRPα extracellular domain, monomeric (cynomolgus monkey, UniProt A0A2K5VYQ9 31-372); assay: ELISA, extracellular domain coated at 2 µg/mL, purified antibody titrated, anti-rat or anti-mouse IgG, chemiluminescence
T11 construct: extracellular domain; also called Cyno SIRPα
Procedure: as §3

[7] = biological target: T9, human SIRPα V1 extracellular domain, …; assay: ELISA, extracellular domain coated at 1 µg/mL, purified antibody titrated, anti-rat IgG, chemiluminescence
Procedure: as §3, with “1” for “2”, “SIRPα” for “of each of the SIRPs”, “IgG” for “IgG or an anti-mouse IgG”

[8] = biological target: T9, human SIRPα V1 extracellular domain, …; assay: SPR (Biacore); antibody captured by anti-IgG on chip, monomeric SIRPα extracellular domain as analyte, 1:1 model
Procedure: (§4) Selected antibodies were tested for their affinities to two hSIRPα variants (V1 and V2), and to cynomolgus monkey (herein referred to as “cyno”) SIRPα. The affinities of these SIRP antibodies were determined using surface plasmon resonance. The SIRP antibodies were flowed onto a chip and captured by an anti-mouse IgG or an anti-human IgG covalently coupled to the surface of the chip. A three-point titration of the extracellular binding domain of hSIRPα was performed per the manufacturer's recommended protocols.

[9] = biological target: T11, cynomolgus monkey SIRPα extracellular …; assay: as above
Procedure: as §4

Human SIRPγ CHO [10] = biological target: T1, Human SIRPγ CHO; assay: flow cytometry, stably transfected CHO cells, antibody titrated, labelled anti-human IgG, MFI
Procedure: as §2

[11] = biological target: T12, human SIRPα V2 extracellular domain, monomeric (human, UniProt P78324 31-370); assay: SPR (Biacore); antibody captured by anti-IgG on chip, monomeric SIRPα extracellular domain as analyte, 1:1 model
T12 construct: also called hSIRPα V2
Procedure: as §4

Human SIRPγ [12] = biological target: T3, Human SIRPγ; assay: ELISA, extracellular domain coated at 1 µg/mL, purified antibody titrated, anti-human IgG, chemiluminescence
Procedure: as §3, with “1” for “2”, “SIRPα” for “of each of the SIRPs”, “IgG” for “IgG or an anti-mouse IgG”
FIGS. 3A-3C show binding curves of SIRP antibodies and two isotype controls with human Fc to human SIRPα V1, human SIRPβ1, human SIRPγ and cynomolgus monkey SIRPα by ELISA. […] Isotype control 1 was an unrelated human IgG1 antibody with irrelevant CDRs. Isotype control 2 was the same as isotype control 1 but contained the same amino acid substitutions in the Fc region as some of the selected SIRP antibodies for increased FcγR binding (referring to Table 11). DNA was transiently transfected into CHO cells for 7 days. Antibodies were purified by Protein A from cell supernatants and analyzed in a titration via ELISA as previously described in FIGS. 2A-2B using an anti-human IgG antibody as the detection antibody.

Binder | Kd [1] [nM] | Kd (human SIRPβ1-His monomer) [nM] | Kd (human SIRPγ-His monomer) [nM] | binding result (Human SIRPβ1/DAP12 CHO) | binding result (Human SIRPγ CHO [2]) | EC50 (read off the curve) (Cynomolgus Monkey SIRPγ) [µg/mL] | EC50 (read off the curve) (Human SIRPβ1) [µg/mL] | EC50 (read off the curve) (Human SIRPγ [3]) [µg/mL] | EC50 (read off the curve) [4] [µg/mL] | SIRPγ-CD47 Response (%) [5] [%] | EC50 (read off the curve) (Human SIRPγ CHO [2]) [µg/mL] | binding result (Human SIRPβ1) | EC50 (read off the curve) [6] [µg/mL] | EC50 (read off the curve) [7] [µg/mL] | binding result (Human SIRPγ [3]) | Kd [8] [nM] | Kd [9] [nM] | EC50 (read off the curve) (Human SIRPγ CHO [10]) [µg/mL] | Kd [11] [nM] | EC50 (read off the curve) (Human SIRPγ [12]) [µg/mL]
B1 | 46.6 | 78.9 | 50 | binds | binds | ~0.03 | ~0.02 | ~0.02 | ~0.03 | -4.94 |  |  |  |  |  |  |  |  |  | 
B2 | 0.244 |  | 54.4 | binds |  |  |  | ~0.2 |  | 129 | ~2 | binds | ~0.1 |  |  |  |  |  |  | 
B3 | 3.74 | 61.9 | 13.3 | binds | binds |  |  |  |  | -3.8 |  | binds |  | ~0.1 | binds |  |  |  |  | 
B4 | 3.1 | 7500 | 103 |  |  | ~0.1 | ~0.06 | ~0.06 | ~0.1 | -7.23 | ~0.2 |  |  |  |  | 4.57 | 513 |  |  | 
B5 |  |  |  |  |  |  |  |  |  |  |  |  |  |  |  | 11.4 | 12.6 | ~0.7 | 9.09 | ~0.04
